From patent US20230330254A1 (Regeneron, published 2023)
Where two headings read alike, the source gives them in different places.

What was measured:
[1] = target: T1, full-length human glucagon receptor on HEK293/CRE-Luc/hGCGR cells (human, UniProt P47871 26-477); test: cell-based or functional assay
[2] = target: T2, full-length human glucagon-like peptide 2 receptor on HEK293/CRE-Luc/hGLP2R cells (human, UniProt O95838 1-553); test: cell-based or functional assay
T2 sequence (looked up): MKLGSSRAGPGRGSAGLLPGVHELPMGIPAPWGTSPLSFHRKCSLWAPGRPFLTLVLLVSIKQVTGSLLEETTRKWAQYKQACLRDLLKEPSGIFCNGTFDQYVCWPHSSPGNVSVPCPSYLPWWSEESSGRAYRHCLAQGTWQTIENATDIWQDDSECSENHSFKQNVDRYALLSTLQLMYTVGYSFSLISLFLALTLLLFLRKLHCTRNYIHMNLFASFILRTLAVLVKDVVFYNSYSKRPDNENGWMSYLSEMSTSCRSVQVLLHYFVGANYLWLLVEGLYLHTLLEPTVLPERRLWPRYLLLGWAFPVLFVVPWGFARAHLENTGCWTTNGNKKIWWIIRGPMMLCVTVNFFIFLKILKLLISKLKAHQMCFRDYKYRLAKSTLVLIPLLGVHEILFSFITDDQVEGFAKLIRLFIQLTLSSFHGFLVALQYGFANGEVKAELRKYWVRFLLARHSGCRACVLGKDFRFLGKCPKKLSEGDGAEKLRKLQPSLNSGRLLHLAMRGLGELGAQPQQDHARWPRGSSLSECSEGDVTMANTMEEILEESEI

[3] = target: T3, full-length human GLP1R on HEK293/CRE-Luc/hGLP1R cells (human, UniProt P43220 24-463); test: cell-based or functional assay
[4] = target: T4, full-length cynomolgus GLP1R on HEK293/CRE-Luc/mfGLP1R cells (cynomolgus, UniProt F8V479 24-463); test: cell-based or functional assay
[5] = target: T5, full-length human gastric inhibitory polypeptide receptor on HEK293/CRE-Luc/hGIPR cells (human, UniProt P48546 22-466); test: cell-based or functional assay
T5 sequence (looked up): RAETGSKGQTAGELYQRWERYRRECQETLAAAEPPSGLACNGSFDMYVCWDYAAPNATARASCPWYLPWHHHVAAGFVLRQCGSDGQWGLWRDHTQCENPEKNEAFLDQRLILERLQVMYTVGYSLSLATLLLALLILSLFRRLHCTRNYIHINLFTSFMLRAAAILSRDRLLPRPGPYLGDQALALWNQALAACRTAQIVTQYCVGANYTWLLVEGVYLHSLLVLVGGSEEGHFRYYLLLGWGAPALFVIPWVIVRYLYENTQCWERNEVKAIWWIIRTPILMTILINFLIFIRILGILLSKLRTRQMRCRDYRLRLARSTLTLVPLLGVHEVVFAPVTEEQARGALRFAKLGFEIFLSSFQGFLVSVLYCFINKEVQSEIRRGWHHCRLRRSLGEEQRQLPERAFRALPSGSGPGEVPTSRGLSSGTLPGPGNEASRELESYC

[6] = target: Myc-tagged full length human GLP1R on HEK293/Myc-hGLP1R/Cre-Luc cells (human, UniProt P43220 24-463); test: cell-based or functional assay
[7] = target: T3, full-length human GLP1R on …; test: cell-based or functional assay; remark: listed apart in the source
[8] = target: T3, full-length human GLP1R on …; test: cell-based or functional assay; remark: listed apart in the source
[9] = target: human GLP1R on PathHunter eXpress GLP1R CHO-K1 b-Arrestin GPCR cells (human, UniProt P43220 24-463); test: cell-based or functional assay
[10] = target: T3, full-length human GLP1R on …; test: cell-based or functional assay; remark: listed apart in the source
[11] = target: T1, full-length human glucagon receptor on …; test: cell-based or functional assay; remark: listed apart in the source
[12] = target: T2, full-length human glucagon-like peptide …; test: cell-based or functional assay; remark: listed apart in the source
[13] = target: T3, full-length human GLP1R on …; test: cell-based or functional assay; remark: listed apart in the source
[14] = target: T4, full-length cynomolgus GLP1R on …; test: cell-based or functional assay; remark: listed apart in the source
[15] = target: T5, full-length human gastric inhibitory …; test: cell-based or functional assay; remark: listed apart in the source
[16] = target: T3, full-length human GLP1R on …; test: cell-based or functional assay; remark: listed apart in the source
[17] = target: T3, full-length human GLP1R on …; test: flow cytometry, hGLP1R cells
[18] = target: T4, full-length cynomolgus GLP1R on …; test: flow cytometry, mfGLP1R cells
[19] = target: T6, full-length mouse GLP1R on HEK293/CRE-Luc/mGLP1R cells (mouse, UniProt O35659 22-463); test: flow cytometry, mGLP1R cells
T6 construct: whole, on cells
T6 sequence (looked up): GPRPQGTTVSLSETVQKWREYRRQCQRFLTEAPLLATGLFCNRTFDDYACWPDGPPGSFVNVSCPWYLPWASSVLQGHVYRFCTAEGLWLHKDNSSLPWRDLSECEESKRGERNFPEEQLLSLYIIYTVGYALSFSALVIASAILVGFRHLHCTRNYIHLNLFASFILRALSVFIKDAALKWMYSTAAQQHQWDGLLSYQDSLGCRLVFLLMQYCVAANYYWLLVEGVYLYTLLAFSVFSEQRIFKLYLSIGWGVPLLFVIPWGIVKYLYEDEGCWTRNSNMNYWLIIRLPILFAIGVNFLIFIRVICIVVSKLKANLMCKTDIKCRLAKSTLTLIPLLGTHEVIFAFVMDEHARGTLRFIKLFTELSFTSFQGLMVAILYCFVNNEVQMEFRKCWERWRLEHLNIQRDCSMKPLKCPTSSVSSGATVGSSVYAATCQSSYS

[20] = target: T3, full-length human GLP1R on …; test: flow cytometry, hGLP1R cells; remark: listed apart in the source
[21] = target: T7, N-terminal ectodomain of human GLP1R expressed with a myc-myc hexahistidine tag (human, UniProt P43220 24-145, limits assumed); test: SPR, captured via anti-hFc, 25 C
T7 construct: extracellular domain; also called hGLP1R-MMH; hGLP1R.mmh
T7 sequence (P43220 24-145 limits assumed): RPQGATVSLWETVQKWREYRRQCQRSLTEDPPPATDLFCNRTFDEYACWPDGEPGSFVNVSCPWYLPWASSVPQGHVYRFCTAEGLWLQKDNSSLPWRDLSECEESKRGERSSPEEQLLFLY

[22] = target: T4, full-length cynomolgus GLP1R on …; test: flow cytometry, mfGLP1R cells; remark: listed apart in the source

T1 sequence (P47871 26-477): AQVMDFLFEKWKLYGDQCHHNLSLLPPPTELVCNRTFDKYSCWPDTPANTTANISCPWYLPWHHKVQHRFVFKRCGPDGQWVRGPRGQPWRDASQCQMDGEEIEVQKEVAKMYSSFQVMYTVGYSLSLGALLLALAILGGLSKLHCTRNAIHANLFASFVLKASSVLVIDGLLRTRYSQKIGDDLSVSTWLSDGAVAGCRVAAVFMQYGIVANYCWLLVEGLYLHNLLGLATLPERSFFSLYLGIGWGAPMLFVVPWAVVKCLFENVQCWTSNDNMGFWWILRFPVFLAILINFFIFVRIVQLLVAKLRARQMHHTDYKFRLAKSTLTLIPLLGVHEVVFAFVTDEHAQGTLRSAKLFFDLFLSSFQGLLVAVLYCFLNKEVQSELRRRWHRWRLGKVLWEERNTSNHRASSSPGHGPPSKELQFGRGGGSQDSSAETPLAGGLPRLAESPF

B1: GLP1R agonist linker-payload LP11 (NH2-PEG8-triazole-P8) (peptide)
peptide: XXGTXTSDXX
modifications: CapAib-E*-G-T-F*-T-S-D-AA2-AA1: CapAib = 3-((2-(1H-imidazol-5-yl)ethyl)amino)-2,2-dimethyl-3-oxopropanoic acid; E* = (S)-2-amino-3-(2H-tetrazol-5-yl)propanoic acid; F* = (S)-2-amino-3-(2-fluorophenyl)-2-methylpropanoic acid; AA2 = biphenylalanine derivative carrying the amino-PEG8-triazole linker; AA1 = (S)-2-amino-5-(3,5-dimethylphenyl)pentanamide
For B1, the “CRE-luc EC50” value [1] was over 200 nM, the “CRE-luc EC50” value [2] was over 200 nM and the “CRE-luc EC50” value [3] was 0.0258 nM. The “CRE-luc EC50” value [4] was 0.0463 nM, the “CRE-luc EC50” value [5] was over 200 nM and the “CRE-luc EC50” value [6] was 0.016 nM. For the same binder, the “cAMP EC50” value [7] was 0.318 nM, the “CRE-luc EC50 (experiment A)” value [8] was 0.0161 nM and the “CRE-luc Relative Potency (% P8 EC50) (experiment A)” value [8] was 33.1%. The “CRE-luc S/N (experiment A)” value [8] was 74.5 fold, the “b-arrestin 2 recruitment EC50” value [9] was 2.48 nM and the “b-arrestin 2 recruitment Emax (% GLP-1)” value [9] was 108%. The “CRE-luc EC50” value [10] was 0.0168 nM, the “CRE-luc Emax (% GLP-1)” value [10] was 93.9% and the “CRE-luc EC50” value [11] was over 30 nM. The “CRE-luc EC50” value [12] was over 30 nM, the “CRE-luc EC50” value [13] was 0.0601 nM and the “CRE-luc EC50” value [14] was 0.202 nM. For the same binder, the “CRE-luc EC50” value [15] was over 30 nM, the “CRE-luc EC50” value [16] was 0.0369 nM and the “CRE-luc Relative Potency (% M2361 EC50)” value [16] was 44%. The “CRE-luc Relative Signal:Noise (% M2361)” value [16] was 96.4% and the “CRE-luc S/N” value [16] was 62 fold.

B2: REGN15869 (antibody, human IgG4 S228P, kappa, V domains shown)
VH: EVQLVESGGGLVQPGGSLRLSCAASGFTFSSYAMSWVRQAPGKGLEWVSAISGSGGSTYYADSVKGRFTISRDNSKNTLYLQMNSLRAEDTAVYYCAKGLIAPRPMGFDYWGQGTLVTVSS
VL: DIQMTQSPSSVSASVGDRVTITCRASQGINSWLAWYQQKPGKAPKLLIYAASSLESGVPSRFSGSGSGTDFTLTISSLQPEDFATYYCHQADSFPYTFGQGTKLEIKR
notes: IgG4; Q-tag on light chain N-terminus; also called REGN15869 unconjugated Ab
For B2, the EC50 [17] was 9.56 nM, the “Flow S/N” value [17] was 106 fold and the EC50 [18] was 8.96 nM. For the same binder, the “Flow S/N” value [18] was 132 fold, the “b-arrestin 2 recruitment EC50” value [9] was over 1000 nM and the “b-arrestin 2 recruitment Emax (% GLP-1)” value [9] was 4.3%. For the same binder, the “CRE-luc EC50” value [10] was over 1000 nM, the “CRE-luc Emax (% GLP-1)” value [10] was 0.5% and the “CRE-luc EC50” value [11] was over 30 nM. The “CRE-luc EC50” value [12] was over 30 nM, the “CRE-luc EC50” value [13] was over 30 nM and the “CRE-luc EC50” value [14] was over 30 nM. The “CRE-luc EC50” value [15] was over 30 nM, the EC50 [19] was 43.1 nM and the “Flow S/N” value [19] was 53.3 fold.

B3: REGN7990-M3190 (antibody, human IgG4 S228P, kappa, V domains shown)
VH: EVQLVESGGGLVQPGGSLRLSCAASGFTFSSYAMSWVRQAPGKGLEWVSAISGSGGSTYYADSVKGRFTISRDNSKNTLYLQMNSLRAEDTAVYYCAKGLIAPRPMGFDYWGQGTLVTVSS
VL: DIQMTQSPSSVSASVGDRVTITCRASQGINSWLAWYQQKPGKAPKLLIYAASSLQSGVPSRFSGSGSGTDFTLTISSLQPEDFATYYCHQADSFPYTFGQGTKLEIKR
modifications: linker-payload M3190 (LP11) on Gln 3 of the N-terminal Q-tag LLQGSG
notes: antibody-tethered drug conjugate; also called REGN7990 ATDC; anti-GLP1R mAb3-LP11
With B3 the “CRE-luc EC50” value [1] was over 200 nM, the “CRE-luc EC50” value [2] was over 200 nM and the “CRE-luc EC50” value [3] was 0.0724 nM. The “CRE-luc EC50” value [4] was 0.0772 nM, the “CRE-luc EC50” value [5] was over 200 nM and the EC50 [17] was 30.5 nM. The “Flow S/N” value [17] was 231 fold, the EC50 [20] was 9.81 nM and the “Flow S/N” value [20] was 117 fold. For the same binder, the “90 nM hGLP1R.mmh Bound (RU)” value [21] was 22.8 RU, the Kd [21] was 2.01 nM and the koff [21] was 0.000785 s⁻¹. For the same binder, the kon [21] was 390000 M⁻¹ s⁻¹, the t1/2 [21] was 14.7 min and the EC50 [18] was 29.9 nM. For the same binder, the “Flow S/N” value [18] was 486 fold, the EC50 [22] was 4.79 nM and the “Flow S/N” value [22] was 103 fold. For the same binder, the “b-arrestin 2 recruitment EC50” value [9] was 17.2 nM, the “b-arrestin 2 recruitment Emax (% GLP-1)” value [9] was 103% and the “CRE-luc EC50” value [10] was 0.236 nM. The “CRE-luc Emax (% GLP-1)” value [10] was 90.9%, the “CRE-luc EC50” value [11] was over 30 nM and the “CRE-luc EC50” value [12] was over 30 nM. For the same binder, the “CRE-luc EC50” value [13] was 0.0637 nM, the “CRE-luc EC50” value [14] was 0.257 nM and the “CRE-luc EC50” value [15] was over 30 nM. The EC50 [19] was 91.5 nM, the “Flow S/N” value [19] was 29.3 fold and the “CRE-luc EC50” value [16] was 0.0601 nM. For the same binder, the “CRE-luc Relative Potency (% M2361 EC50)” value [16] was 27%, the “CRE-luc Relative Signal:Noise (% M2361)” value [16] was 135% and the “CRE-luc S/N” value [16] was 86.9 fold.
